What was measured:
[1] = system: O=[N+]([O-])c1ccccc1O[C@@H]1O[C@H](CO)[C@H](O)[C@H](O)[C@H]1O; assay: o-nitrophenol release, A420, Michaelis-Menten non-linear fit; format: biochemical, Bifidobacterium longum subsp. infantis; details: optimum pH 5.0 and optimum temperature 45-55 °C, 0.1-4 mM ONPG
[2] = substrate: O=[N+]([O-])c1ccccc1O[C@@H]1O[C@H](CO)[C@H](O)[C@H](O)[C@H]1O; assay: as above; format: biochemical, Bifidobacterium longum; details: optimum pH 5.0-6.0 and optimum temperature 45-55 °C, 0.1-4 mM ONPG

| Molecule | Km [1] | kcat [1] | kcat/Km [1] | Km [2] | kcat [2] | kcat/Km [2] |
| --- | --- | --- | --- | --- | --- | --- |
| Blon_0268 (Bifidobacterium longum subsp. infantis ATCC 15697 = JCM 1222 = DSM 20088) | 600 µM | 5.11 s⁻¹ | 8500 M⁻¹ s⁻¹ |  |  |  |
| Blon_2123 (Bifidobacterium longum subsp. infantis ATCC 15697 = JCM 1222 = DSM 20088) (protein) MRARRDFAWPKLLTADGRGIAFGGDYNPDQWPEDVWDDDIRLMGQAGVNTVALAIFSWDRLQPTEDHWNFDWLDRIIDKLGQAGIAVDLASATATAPLWLYENHPEVLPRDKYGHPVNAGSRQSWSPTSPVFKEYALTLCRKLAERYGTNPYVTAWHMGNEYGWNNRDDYSDNALEAFRAWCRRKYGTIDALNQAWGTTFWGQEMTGFDEVLIPRFMGADSMVNPGQKLDFERFGNDMLLDFYKAERDAIAEICPDKPFTTNFMISTDQCCMDYAAWAEEVNFVSNDHYFHEGESHLDELACSDALVDSLALGKPWYVMEHSTSAVQWKPLNTRKRNGETVRDSLAHVAMGADAINFFQWRASAFGAEAFHSAMVPHAGENTKLFRQVCELGATLQALADAGVQGSELAHADTAILFSAESEWATRSETLPSMKLNHWHDVRDWYRAFLNAGARADIVPLAYDWSSYKTIVLPTVLMLSDADTRRLAGFVQDGGRVVVGYATGLLDERFHTWLGGYPGAGDGLLRSMLGVRGEEFNILGTETEDEPSEIRLASTGDSPTMDGAVTRLWQNDVTVAGPHVQVLAAYAGEEANEWELDGTAAITRNTYGEGEAYFLGCDLGVSDLTRFVGGWLAARPQDGRQPEANLRSPASGVTSDVLHTVRQSDDAIFDFYLTRGKSDVELRDIAGEPIVLFRAERGSDGGAYTVHRNGVLVMKRPNPSV |  |  |  | 1060 µM | 270 s⁻¹ | 250000 M⁻¹ s⁻¹ |
